The record followed here is publication PMC11700592, “Noncoding RNA Terc-53 and hyaluronan receptor Hmmr regulate aging in mice” (Protein & Cell, 2024).

For this assay, the target named is T1, His-tagged Hmmr (mouse, UniProt Q00547 1-794).
T1 construct: Hmmr, mouse; It is not restated for the bacterial construct; also called His-Hmmr; purified Hmmr; source: bacteria BL21 (DE3), purified (Ni-NTA)
T1 sequence (looked up): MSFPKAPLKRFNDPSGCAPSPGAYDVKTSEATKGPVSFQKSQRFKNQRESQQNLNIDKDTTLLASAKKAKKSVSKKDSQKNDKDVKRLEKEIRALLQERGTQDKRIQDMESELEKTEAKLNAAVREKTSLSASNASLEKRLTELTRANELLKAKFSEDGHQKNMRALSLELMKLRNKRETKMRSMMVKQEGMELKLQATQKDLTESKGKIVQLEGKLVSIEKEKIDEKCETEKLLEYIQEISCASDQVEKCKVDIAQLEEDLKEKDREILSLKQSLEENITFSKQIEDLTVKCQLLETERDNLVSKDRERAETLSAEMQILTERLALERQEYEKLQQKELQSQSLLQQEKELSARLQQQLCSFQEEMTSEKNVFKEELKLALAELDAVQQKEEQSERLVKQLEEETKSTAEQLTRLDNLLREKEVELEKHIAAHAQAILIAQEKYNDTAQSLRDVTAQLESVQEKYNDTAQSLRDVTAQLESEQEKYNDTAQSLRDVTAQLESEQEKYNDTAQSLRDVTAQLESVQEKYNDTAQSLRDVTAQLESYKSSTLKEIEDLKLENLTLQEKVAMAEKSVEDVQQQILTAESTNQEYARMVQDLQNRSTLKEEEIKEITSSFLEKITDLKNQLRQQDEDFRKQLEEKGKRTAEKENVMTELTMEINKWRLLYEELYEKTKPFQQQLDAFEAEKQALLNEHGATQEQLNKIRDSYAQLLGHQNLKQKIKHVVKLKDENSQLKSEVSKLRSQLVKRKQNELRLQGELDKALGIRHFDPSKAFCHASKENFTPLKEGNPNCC
In words: co-IP; in vitro binding assay: purified His-tagged Hmmr and HA-tagged Trim25 mixed without RNA or with in vitro transcribed Terc-53, 5S rRNA, full-length Terc or Terc-53 mut; one sample with Terc-53 treated with RNase A; immunoprecipitated with His antibody, blot with HA antibody. Particulars: both partners purified.

B1: HA-tagged Trim25 (natural protein, mouse, UniProt Q61510 1-634, looked up)
chain: MAELNPLAEELSCSVCLELFKEPVTTPCGHNFCMSCLDETWVVQGPPYRCPQCRKVYQVRPQLQKNTVMCAVVEQFLQAEQARTPVDDWTPPARFSASSAATQVACDHCLTEIAVKTCLVCMASFCQEHLRPHFDSPAFQDHPLQSPIRDLLRRKCTQHNRLRELFCPEHGECICHICLVEHKTCSPTTLSQASADLEYKLRNKLTIMHSHINGATKALEDVRSKQQCVQDSMKRKMEQLRQEYMEMKAVIDAAETSSLRKLKEEEKRVYGKFDTIYQVLVKKKSEMQKLKAEVELIMDKGDEFEFLEKAAKLQGESTKPVYIPKIDLDHDLIMGIYQGAADLKSELKHSIKKLQKKSEEHNGSGNKGDQTQSTFKPVQPSKKTIQEKKTKKTPVAPGPPSHFSPNKLPTFGAPGQSLDSKATSPDAAPKASAAQPDSVGVKAKVLENFLTKSRTELLEYFVKVIFDYNTAHNKVSLSNKYTTASVSDGLQHYRSHPQRFTYCSQVLGLHCYKNGIHYWEVELQKNNFCGVGICYGSMERQGPESRLGRNPNSWCVEWFNNKISAWHNNVEKTLPSTKATRVGVLLNCDHGFVIFFAVTEKVHLMYKFKVDFTEALYPAFWVFSAGTTLSICSK
notes: Trim25, mouse; also called HA-Trim25; purified Trim25; source: purified
For the molecule B1, the binding result was “binds”.
